Reference: patent US20250163127A1 (published 2025)

How the values were obtained:
human PD-1 [1] = target: T1, human PD-1 (human, UniProt Q15116); test: flow cytometry, CHO/PD-1 cells, 100 nM, anti-Flag
human CTLA-4 = human CTLA-4 (human); test: flow cytometry, CHO/CTLA-4 cells, 100 nM, anti-Flag
human CD28 [2] = target: T2, human CD28 (human, UniProt P10747); test: flow cytometry, Jurkat cells (endogenous CD28), 100 nM, anti-Flag
CD2 [3] = target: CD2 (Homo sapiens (Human), UniProt P06729); test: flow cytometry, CHO-CD2 cells
human TIGIT = target: T3, human TIGIT (human, UniProt Q495A1); test: flow cytometry, Jurkat/IL-2/TIGIT cells
T3 sequence: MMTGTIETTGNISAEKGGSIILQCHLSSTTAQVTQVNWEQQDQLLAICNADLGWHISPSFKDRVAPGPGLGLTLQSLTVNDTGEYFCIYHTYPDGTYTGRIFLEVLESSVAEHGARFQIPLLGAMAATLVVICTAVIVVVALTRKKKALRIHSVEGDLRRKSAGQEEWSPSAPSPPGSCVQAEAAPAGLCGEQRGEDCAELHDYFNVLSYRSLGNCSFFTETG

CD80 = target: T4, CD80 (human); test: flow cytometry, CHO-CD80 cells
T4 chain: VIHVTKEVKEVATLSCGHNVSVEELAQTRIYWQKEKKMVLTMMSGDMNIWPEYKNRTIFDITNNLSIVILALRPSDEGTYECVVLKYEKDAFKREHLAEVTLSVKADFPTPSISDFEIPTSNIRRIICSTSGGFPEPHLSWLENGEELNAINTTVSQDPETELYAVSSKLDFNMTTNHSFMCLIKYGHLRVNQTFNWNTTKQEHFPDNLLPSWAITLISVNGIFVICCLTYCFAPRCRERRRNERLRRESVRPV

human CD28 [4] = target: T2, human CD28; test: flow cytometry, Expi-CD28 cells
human PD-1 [5] = target: T1, human PD-1; test: flow cytometry, Jurkat/IL-2/PD-1 cells
TIGIT = target: T5, TIGIT (human, UniProt Q495A1); test: cell-based or functional assay
T5 sequence: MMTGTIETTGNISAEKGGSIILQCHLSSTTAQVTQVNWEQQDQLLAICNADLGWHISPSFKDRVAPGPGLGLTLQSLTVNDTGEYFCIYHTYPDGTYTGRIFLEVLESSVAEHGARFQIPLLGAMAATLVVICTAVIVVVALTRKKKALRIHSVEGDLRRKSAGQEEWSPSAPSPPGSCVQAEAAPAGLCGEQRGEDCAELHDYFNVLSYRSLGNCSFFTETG

CD2 [6] = target: CD2 (human, UniProt P06729); test: cell-based or functional assay

Sequence of human CTLA-4 (human) (chain, as listed by the source): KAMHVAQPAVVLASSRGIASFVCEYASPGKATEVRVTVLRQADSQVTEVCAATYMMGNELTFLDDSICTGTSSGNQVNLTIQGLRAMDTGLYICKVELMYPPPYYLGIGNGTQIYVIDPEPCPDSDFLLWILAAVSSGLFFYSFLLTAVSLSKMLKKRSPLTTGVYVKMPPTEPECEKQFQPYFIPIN

B1: PD-L2 1417-CD80 2616 (other)
chain: LFTVTVPKELYIIEQGSNVTLECNFDTGSHVNLGAITASLQKVENDASPHRERATLLEEQLPLGRALFHIPQVQVRDEGQYRCIIIYGDAWDYKYLTLKVKAGSGGSGGGGSGGGGSVIHVTKEVKEVATLSCGHNVSLEELAQTRIYWQKGKKMVLTMMSGDMNIWPEYKNRTIFDITNNLSIVILDPRPSDEGTYECVVLKYEKDAFKREHLAEVDYKDDDDKHHHHHH
- MFI (human PD-1 [1]): 20000
- MFI (human CTLA-4): 79.3
- MFI (human CD28 [2]): 89.2

B2: PD-L2 1417-CD80 2617 (other)
chain: LFTVTVPKELYIIEQGSNVTLECNFDTGSHVNLGAITASLQKVENDASPHRERATLLEEQLPLGRALFHIPQVQVRDEGQYRCIIIYGDAWDYKYLTLKVKAGSGGSGGGGSGGGGSVIHVTKEVKEVATLSCGHNVSVEELAQTRIYWQKGKKMVLTMMSGDMNIWPEYENRTIFDITNNLSIVILDPRPSDEGTYECVVLKYEKDAFKREHLAEVDYKDDDDKHHHHHH
- MFI (human PD-1 [1]): 13700
- MFI (human CTLA-4): 85
- MFI (human CD28 [2]): 94.2

B3: CD155 665-CD58 3650-Fc (Fc fusion)
chain: WPPPGTGDVVVQAPTQVSGFLGDSVTLPCYLQVPNMEVTHVSQLTWARHGESGSMAVFHQTQGPWYAESKRLEFVAARLGAELRNASLRVFGLRAEDEGNYTCQFVTFPQRSRSVDIWLRVLGGGGSGGGGSGGGGSSQQIYGVVYGNVTFHVPSNVPLKEVLWKKQKDKVAELENSEFRAFSSFKNRVYLDTVSGSLTIYNLTSSDEDEYEMESPNITDTMKFFLYVLESGSGGGGSEPKSSDKTHTCPPCPAPEAEGAPSVFLFPPKPKDTLMISRTPEVTCVVVDVSHEDPEVKFNWYVDGVEVHNAKTKPREEQYNSTYRVVSVLTVLHQDWLNGKEYKCKVSNKALPAPIEKTISKAKGQPREPQVYTLPPSRDELTKNQVSLTCLVKGFYPSDIAVEWESNGQPENNYKTTPPVLDSDGSFFLYSKLTVDKSRWQQGNVFSCSVMHEALHNHYTQKSLSLSPG
- EC50 (CD2 [3]): 0.845 nM
- EC50 (human TIGIT): 0.733 nM

B4: PD-L1 303-CD155 665-CTLA-4 3037-Fc (Fc fusion)
chain: FTVTVPKDLYVVEYGSNMTIECKFPVEKQLDLAALIVYWEMEGKDIIQFVHGEEDQKAQHSSYRQRARLLKDQLSLGNAALQITDVKLQDAGVYRCMISYGGGADYKRITVKVNAGGGGSGGGGSGGGGSWPPPGTGDVVVQAPTQVSGFLGDSVTLPCYLQVPNMEVTHVSQLTWARHGESGSMAVFHQTQGPWYAESKRLEFVAARLGAELRNASLRVFGLRAEDEGNYTCQFVTFPQRSRSVDIWLRVLGGGGSGGGGSGGGGSKAMHVAQPAVVFASSHGIASFVCEYASPWKATEVRVTVLRQADSQVTEVCAATYMTGNELTFLDDSICTGTSSGNQVNLTIQGLRAMDTGLYICKVEQMYPPPYLLGIGNGTQIYVIDPEPCPDSDGSGGGGSEPKSSDKTHTCPPCPAPEAEGAPSVFLFPPKPKDTLMISRTPEVTCVVVDVSHEDPEVKFNWYVDGVEVHNAKTKPREEQYNSTYRVVSVLTVLHQDWLNGKEYKCKVSNKALPAPIEKTISKAKGQPREPQVYTLPPSRDELTKNQVSLTCLVKGFYPSDIAVEWESNGQPENNYKTTPPVLDSDGSFFLYSKLTVDKSRWQQGNVFSCSVMHEALHNHYTQKSLSLSPG
- EC50 (CD80): 3.8 nM
- EC50 (human CD28 [4]): 4.15 nM
- EC50 (human PD-1 [5]): 1.3 nM
- EC50 (human TIGIT): 1.6 nM

B5: CTLA-4 3060-CD155 665-Fc (Fc fusion)
chain: KAMHVAQPAVVFASSHGIASFVCEYASPWKATEVRVTVLRQADSQVTEVCAATYMTGNELTFLDDSICTGTSSGNQVNLTIQGLRAMDTGLYICKVEQMYPPPYLLGIGNGTQIYVIDPEPCPDSDGGGGSGGGGSGGGGSWPPPGTGDVVVQAPTQVSGFLGDSVTLPCYLQVPNMEVTHVSQLTWARHGESGSMAVFHQTQGPWYAESKRLEFVAARLGAELRNASLRVFGLRAEDEGNYTCQFVTFPQRSRSVDIWLRVLGSGGGGSEPKSSDKTHTCPPCPAPEAEGAPSVFLFPPKPKDTLMISRTPEVTCVVVDVSHEDPEVKFNWYVDGVEVHNAKTKPREEQYNSTYRVVSVLTVLHQDWLNGKEYKCKVSNKALPAPIEKTISKAKGQPREPQVYTLPPSRDELTKNQVSLTCLVKGFYPSDIAVEWESNGQPENNYKTTPPVLDSDGSFFLYSKLTVDKSRWQQGNVFSCSVMHEALHNHYTQKSLSLSPG
- EC50 (CD80): 1.8 nM
- EC50 (human TIGIT): 3.4 nM

B6: CD58 3650-CD155 665-Fc (Fc fusion)
chain: SQQIYGVVYGNVTFHVPSNVPLKEVLWKKQKDKVAELENSEFRAFSSFKNRVYLDTVSGSLTIYNLTSSDEDEYEMESPNITDTMKFFLYVLESGGGGSGGGGSGGGGSWPPPGTGDVVVQAPTQVSGFLGDSVTLPCYLQVPNMEVTHVSQLTWARHGESGSMAVFHQTQGPWYAESKRLEFVAARLGAELRNASLRVFGLRAEDEGNYTCQFVTFPQRSRSVDIWLRVLGSGGGGSEPKSSDKTHTCPPCPAPEAEGAPSVFLFPPKPKDTLMISRTPEVTCVVVDVSHEDPEVKFNWYVDGVEVHNAKTKPREEQYNSTYRVVSVLTVLHQDWLNGKEYKCKVSNKALPAPIEKTISKAKGQPREPQVYTLPPSRDELTKNQVSLTCLVKGFYPSDIAVEWESNGQPENNYKTTPPVLDSDGSFFLYSKLTVDKSRWQQGNVFSCSVMHEALHNHYTQKSLSLSPG
- EC50 (CD2 [3]): 0.935 nM
- EC50 (human TIGIT): 1 nM

B7: CD58 3650-CD155 665-Fc (Fc fusion)
chain: SQQIYGVVYGNVTFHVPSNVPLKEVLWKKQKDKVAELENSEFRAFSSFKNRVYLDTVSGSLTIYNLTSSDEDEYEMESPNITDTMKFFLYVLESGGGGSGGGGSGGGGSWPPPGTGDVVVQAPTQVSGFLGDSVTLPCYLQVPNMEVTHVSQLTWARHGESGSMAVFHQTQGPWYAESKRLEFVAARLGAELRNASLRVFGLRAEDEGNYTCQFVTFPQRSRSVDIWLRVLGSGGGGSEPKSSDKTHTCPPCPAPEAEGAPSVFLFPPKPKDTLMISRTPEVTCVVVDVSHEDPEVKFNWYVDGVEVHNAKTKPREEQYNSTYRVVSVLTVLHQDWLNGKEYKCKVSNKALPAPIEKTISKAKGQPREPQVYTLPPSRDELTKNQVSLTCLVKGFYPSDIAVEWESNGQPENNYKTTPPVLDSDGSFFLYSKLTVDKSRWQQGNVFSCSVMHEALHNHYTQKSLSLSPG
- 100 nM IFN-gamma (pg/mL), SEB assay (TIGIT): 6490 pg/mL
- 100 nM IFN-gamma (pg/mL), SEB assay (CD2 [6]): 6490 pg/mL

B8: CD155 665-ICOSL 2264-ICOSL 2264-CD155 665 (other)
chain: WPPPGTGDVVVQAPTQVSGFLGDSVTLPCYLQVPNMEVTHVSQLTWARHGESGSMAVFHQTQGPWYAESKRLEFVAARLGAELRNASLRVFGLRAEDEGNYTCQFVTFPQRSRSVDIWLRVLGGGGSGGGGTGGGGSDTQEKEVRAMVGSDVELSCACPEGSRFDLNDVYVYWQTSESKTVVTYHIPQHSSLEYVDSRYRNRALMSPAGMLRGDFSLRLFNVTPQDEQKFHCLVLSRSLGFQEVLSVEVTLHVAANFSVGGGGSGGGGSGGGGSDTQEKEVRAMVGSDVELSCACPEGSRFDLNDVYVYWQTSESKTVVTYHIPQHSSLEYVDSRYRNRALMSPAGMLRGDFSLRLFNVTPQDEQKFHCLVLSRSLGFQEVLSVEVTLHVAANFSVGSGGSGGGGSGGGGSWPPPGTGDVVVQAPTQVSGFLGDSVTLPCYLQVPNMEVTHVSQLTWARHGESGSMAVFHQTQGPWYAESKRLEFVAARLGAELRNASLRVFGLRAEDEGNYTCQFVTFPQRSRSVDIWLRVLGSGGGGSDYKDDDDKHHHHHH
- EC50 (human CD28 [4]): 3.39 nM
- EC50 (human TIGIT): 2.3 nM

B9: CD155 665-CTLA-4 3037-Fc (Fc fusion)
chain: WPPPGTGDVVVQAPTQVSGFLGDSVTLPCYLQVPNMEVTHVSQLTWARHGESGSMAVFHQTQGPWYAESKRLEFVAARLGAELRNASLRVFGLRAEDEGNYTCQFVTFPQRSRSVDIWLRVLGGGGSGGGGSGGGGSKAMHVAQPAVVFASSHGIASFVCEYASPWKATEVRVTVLRQADSQVTEVCAATYMTGNELTFLDDSICTGTSSGNQVNLTIQGLRAMDTGLYICKVEQMYPPPYLLGIGNGTQIYVIDPEPCPDSDGSGGGGSEPKSSDKTHTCPPCPAPEAEGAPSVFLFPPKPKDTLMISRTPEVTCVVVDVSHEDPEVKFNWYVDGVEVHNAKTKPREEQYNSTYRVVSVLTVLHQDWLNGKEYKCKVSNKALPAPIEKTISKAKGQPREPQVYTLPPSRDELTKNQVSLTCLVKGFYPSDIAVEWESNGQPENNYKTTPPVLDSDGSFFLYSKLTVDKSRWQQGNVFSCSVMHEALHNHYTQKSLSLSPG
- EC50 (CD80): 4.1 nM
- EC50 (human TIGIT): 0.6 nM

B10: CD80 2616-PD-L2 1417 (other)
chain: VIHVTKEVKEVATLSCGHNVSLEELAQTRIYWQKGKKMVLTMMSGDMNIWPEYKNRTIFDITNNLSIVILDPRPSDEGTYECVVLKYEKDAFKREHLAEVGSGGSGGGGSGGGGSLFTVTVPKELYIIEQGSNVTLECNFDTGSHVNLGAITASLQKVENDASPHRERATLLEEQLPLGRALFHIPQVQVRDEGQYRCIIIYGDAWDYKYLTLKVKADYKDDDDKHHHHHH
- MFI (human PD-1 [1]): 1520
- MFI (human CTLA-4): 82.5
- MFI (human CD28 [2]): 92.2

B11: CD80 2617-PD-L2 1417 (other)
chain: VIHVTKEVKEVATLSCGHNVSVEELAQTRIYWQKGKKMVLTMMSGDMNIWPEYENRTIFDITNNLSIVILDPRPSDEGTYECVVLKYEKDAFKREHLAEVGSGGSGGGGSGGGGSLFTVTVPKELYIIEQGSNVTLECNFDTGSHVNLGAITASLQKVENDASPHRERATLLEEQLPLGRALFHIPQVQVRDEGQYRCIIIYGDAWDYKYLTLKVKADYKDDDDKHHHHHH
- MFI (human PD-1 [1]): 1390
- MFI (human CTLA-4): 75.5
- MFI (human CD28 [2]): 110
